Patent US20230226096A1 (Orna Therapeutics, Inc., priority 2020, published 2023)
Changes are numbered by the printed parent chain.

B1: Aichivirus Goiania (nucleic acid, listed as Aichivirus sp.)
DNA: ACTCCATTCAGCTTCTTCGGAACCTGTTCGGAGGAATTAAACGGGCACCCATACACCCCCATCCCCTTTTTTGCAACTTAAGTATGTGTGCTCGTAATCTTGACTCCCACGGAATGGATCGATCCGCTGGAGAACAAACTGCTAGATCCACATCCTCCCTCCCCCCTGGGAGGACCTCGGTCCTCCCACATCCTCCCCCCAGCCTGACGTATCACAGGCTGTGTGAAGCCCCCGCGAAAGCTGCTCACGTGGCAATTGTGGGTCCCCCCTTCATCAAGACACCAGGTCTTTCCTCCTTAAGGCTAGTCCCGATGTGTGAATTCACATCGGGCAACTAGTGGTGTCACTGTGCGCTCCCAATCTCGGCCGCGGAGTGCTGTTCCCCAAGCCAAACCCCTGGCCCTTCACTATGTGCCTGGCAAGCATATCTGAGAAGGCGTTCCGCTGTGGCTGCCAGCCTGGTAACAGGTGCCCCAGTGTGCGTAACCTTCTTCCGTCCCCGGACGGTAGTGATTGGTTAAGACTTGGCGTAAGGTTCATGTGCCAACGCCCTGTGCGGGATGAAACCTCTACTGCCCTAGGAATGCCAGGCAGGTACCCCACCTTCGGGTGGGATCTGAGCCTGGGCTAATTGTCTACGGGTAGTTTCATTTCTAATTCTTTCATGTCGGAGTC
B2: A110-675 (nucleic acid)
DNA: ACCTTTGTGCGCCTGTTTTATACCCCCTCCCCCAACTGTAACTTAGAAGTAACACACACCGATCAACAGTCAGCGTGGCACACCAGCCACGTTTTGATCAAGCACTTCTGTTACCCCGGACTGAGTATCAATAGACTGCTCACGCGGTTGAAGGAGAAAGCGTTCGTTATCCGGCCAACTACTTCGAAAAACCTAGTAACACCGTGGAAGTTGCAGAGTGTTTCGCTCAGCACTACCCCAGTGTAGATCAGGTCGATGAGTCACCGCATTCCCCACGGGCGACCGTGGCGGTGGCTGCGTTGGCGGCCTGCCCATGGGGAAACCCATGGGACGCTCTAATACAGACATGGTGCGAAGAGTCTATTGAGCTAGTTGGTAGTCCTCCGGCCCCTGAATGCGGCTAATCCTAACTGCGGAGCACACACCCTCAAGCCAGAGGGCAGTGTGTCGTAACGGGCAACTCTGCAGCGGAACCGACTACTTTGGGTGTCCGTGTTTCATTTTATTCCTATACTGGCTGCTTATGGTGACAATTGAGAGATCGTTACCATATAGCTATTGGATTGGCCATCCGGTGACTAATAGAGCTATTATATATCCCTTTGTTGGGTTTATACCACTTAGCTTGAAAGAGGTTAAAACATTACAATTCATTGTTAAGTTGAATACAGCAAA
B3: 18-675 (nucleic acid)
DNA: CCCACAGCAAGAATGCCATCATCTGTCCTCACCCCCAATTTTCCCTTTTCTTCCCCTGCAACCATTACGCTTACTCGCATGTGCATTGAGTGGTGCATGTGTTGAACAAACAGCTACACTCACATGGGGGCGGGTTTTCCCGCCCTACGGCCTCTCGCGAGGCCCACCCCTTCCCTCCCCTTATAACTACAGTGCTTTGGTAGGTAAGCATCCTGATCCCCCGCGGAAGCTGCTCACGTGGCAACTGTGGGGACCCAGACAGGTTATCAAAGGCACCCGGTCTTTCCGCCTTCAGGAGTATCCCTACTAGTGAATTCTAGCGGGGCTCTGCTTGGTGCCAACCTCCCCCAAATGCGCGCTGCGGGAGTGCTCTTCCCCAACTCACCCTAGTATCCTCTCATGTGTGTGCTTGGTCAGCATATCTGAGACGATGTTCCGCTGTCCCAGACCAGTCCAGTAATGGACGGGCCAGTGCGTGTAGTCGTCTTCCGGCTTGTCCGGGGCATGTTTGGTGAACCGGTGGGGTAAGGTTGGTGTGCCCAACGCCCGTACTTTGGTGACACCTCAAGACCACCCAGGAATGCCAGGGAGGTACCCCACCTCACGGTGGGATCTGACCCTGGGCTAATTGTCTACGGTGGTTCTTCTTGCTTCCACTTCTTTCTTCTGTTCACG
B4: A105-675 (nucleic acid)
DNA: CCACCCACAGCAAGAATGCCATCATCTGTCCTCACCCCCATTTCTCCCCTCCTTCCCCTGCAACCATTACGCTTACTCGCATGTGCATTGAGTGGTGCACGTGTTGAACAAACAGCTACACTCACGTGGGGGCGGGTTTTCCCGCCCTTCGGCCTCTCGCGAGGCCCACCCTTCCCCTTCCTCCCATAACTACAGTGCTTTGGTAGGTAAGCATCCTGATCCCCCGCGGAAGCTGCTCGCGTGGCAACTGTGGGGACCCAGACAGGTTATCAAAGGCACCCGGTCTTTCCGCCTCCAGGAGTATCCCTGCTAGTGAATTCTAGTGGGGCTCTGCTTGGTGCCAACCTCCCCCAAATGCGCGCTGCGGGAGTGCTCTTCCCCAACTCACCCTAGTATCCTCTCATGTGTGTGCTTGGTCAGCATATCTGAGACGATGTTCCGCTGTCCCAGACCAGTCCAGCAATGGACGGGCCAGTGTGCGTAGTCGTCTTCCGGCTTGTCCGGCGCATGTTTGGTGAACCGGTGGGGTAAGGTTGGTGTGCCCAACGCCCGTACTTTGGTGACAACTCAAGACCACCCAGGAATGCCAGGGAGGTACCCCGCCTCACGGCGGGATCTGACCCTGGGCTAATTGTCTACGGTGGTTCTTCTTGCTTCCATTTCTTTCTTCTGTTC
B5: A73-675 (nucleic acid)
DNA: TTACTCCATTCAGCTTCTTCGGAACCTGTTCGGAGGAATTAAACGGGCACCCATACTCCCCCCACCCCCCTTTTGTAACTAAGTATGTGTGCTCGTGATCTTGACTCCCACGGAACGGACCGATCCGTTGGTGAACAAACAGCTAGGTCCACATCCTCCCTTCCCCTGGGAGGGCCCCCGCCCTCCCACATCCTCCCCCCAGCCTGACGTATCACAGGCTGTGTGAAGCCCCCGCGAAAGCTGCTCACGTGGCAATTGTGGGTCCCCCCTTCATCAAGACACCAGGTCTTTCCTCCTTAAGGCTAGCCCCGGCGTGTGAATTCACGTTGGGCAACTAGTGGTGTCACTGTGCGCTCCCAATCTCGGCCGCGGAGTGCTGTTCCCCAAGCCAAACCCCTGGCCCTTCACTATGTGCCTGGCAAGCATATCTGAGAAGGTGTTCCGCTGTGGCTGCCAACCTGGTGACAGGTGCCCCAGTGTGCGTAACCTTCTTCCGTCTCCGGACGGTAGTGATTGGTTAAGATTTGGTGTAAGGTTCATGTGCCAACGCCCTGTGCGGGATGAAACCTCTACTGCCCTAGGAATGCCAGGCAGGTACCCCACCTCCGGGTGGGATCTGAGCCTGGGCTAATTGTCTACGGGTAGTTTCATTTCCAATCCTTTTATGTCGGAGTC
B6: Tropivirus A (nucleic acid)
DNA: TGTCGCATGTTGCCAACATCAAAATTCTGGGAGAGTCGCGAACTCCTTAACACTGCCTTGCCTCGACGGAGCCGTTGTTATAGTGTCGACGGGATACAAACATTAAACTAAACCCACTTGCCTCGACGGAACCCCTTACCTTTTATTTTATTTTATAGTATGAAAGTGAATCTTGTATGAATGTTCATAGAAAACTGCAAATGAGTACCACGTCTAACATGAGAGAATGATACTGGAGAAATCCAAGTTTAGAAGTCACTACGAATCCCAGCGGAAACAAGGGAATTCTGAGCTTCTAATAGGCGTTTAAGACTATTTGCAAAATTCTGGTGCGTAAGTGATATTTTCATTGCGTAGAACGCTGGTAACCACTCCGGCTAGTATAAGCATTGTTAGTCACTTATTATGAAACTCCACACTATCCTTTCTGGAGAAGCACACAAACTTACATGGTAAAGCTAGACCATTATCTTAAGCGGTGAGTACACTGCAACCTTGTAACAATGCTTGTATGACTACTTTTTGTATATCTTGAGCAATATTGTTGAGGTGGACATGTCCAAAGGTAATGTTGTTGGGAATGGAGGGGTCCATTTTCCCGTGCACGTAGTGTACTAGTATTGGGTGATAGCCTTGCGGCGGATCAACCATGTATTTTAATCCGTTGACTTTCAC
modifications: Tropivirus A
B7: A115-675 (nucleic acid)
DNA: ACCTTTGTGCGCCTGTTTTATACCCCCCCCAACCTCGAAACTTAGAAGTAAAGCAAACCCGATCAATAGCAGGTGCGGCGCACCAGTCGCATCTTGATCAAGCACTTCTGTAACCCCGGACCGAGTATCAATAGACTGCTCACGCGGTTGAAGGAGAAAACGTTCGTTACCCGGCTAACTACTTCGAGAAACCCAGTAGCATCATGAAAGTTGCAGAGTGTTTCGCTCAGCACTACCCCCGTGTAGATCAGGCCGATGAGTCACCGCACTTCCCCACGGGCGACCGTGGCGGTGGCTGCGTTGGCGGCCTGCCTATGGGGCAACCCATAGGACGCTCTAATACGGACATGGTGCGAAGAGTCTATTGAGCTAGTTAGTAGTCCTCCGGCCCCTGAATGCGGCTAATCCTAACTGCGGAGCACATACCCTTAATCCAAAGGGCAGTGTGTCGTAACGGGTAACTCTGCAGCGGAACCGACTACTTTGGGTGTCCGTGTTTCCTTTTAATTTTTACTGGCTGCTTATGGTGACAATTGAGGAATTGTTGCCATATAGCTATTGGATTGGCCATCCGGTGACTAACAGAGCTATTGTGTTCCAATTTGTTGGATTTACCCCGCTCACACTCACAGTCGTAAGAACCCTTCATTACGTGTTATTTCTCAACTCAAGAAA
B8: Kobuvirus 16317 (nucleic acid, listed as Kobuvirus sp.)
DNA: TTACTCCATTCAGCTTCTTCGGAACCTGTTCGGAGGAATTAAACGGGCACCCATACACCCCCATCCCCTTTCTGCAACTTAAGTATGTGTGCTCGTGATCTTGACTCCCACGGAATGGATCGATCCGCTGGAGAACAAACTGCTAGATCCACATCCTCCCTTCCCCTGGGAGGACCTTGGTCCTCCCACATCCTCCCCCCAGCCTGACGTACCACAGGCTGTGTGAAGCCCCCGCGAAAGCTGCTCACGTGGCAATTGTGGGTCCCCCCTTCATCAAGACACCAGGTCTTTCCTCCTTAAGGCTAGCCCCGATGTGTGAATTCACATTGGGCAACTAGTGGTGTCACTGTGCGCTCCCAATCTCGGCCGCGGAGTGCTGTTCCCCAAGCCAAACCCCTGGCCCTTCACTATGTGCCTGGCAAGCATACCTGAGAAGGTGTTCCGCTGTGGCTGCCAGCCTGGTAACAGGTGCCCCAGTGTGCGTAACCTTCTTCCGTCTTCGGACGGTAGTGATTGGTTAAGATTTGGTGTAAGGTCCATGTGCCAACGCCCTGTGCGGGATGAAACCTCTACTGCCCTAGGAATGCCAGGCAGGTACCCCACCCCCGGGTGGGATCTGAGCCTGGGCTAATTGTCTACGGGTAGTTTCATTTCCAATTCTTTTATGTCGGAGTC
B9: Aichivirus Chshc7 (nucleic acid, listed as Aichivirus sp.)
DNA: B8 DNA with C58T, C75T, C94T, G97A, C428T, T500C, C537T, C567T, C606T, T659C

test system: HEK293 cells; assay type: cell-based, human; conditions: luminescence from secreted Gluc in supernatant 24 hours after transfection of HEK293 cells; circular RNA encoding Gluc with the named IRES (UTR truncated to 675 nt)

First: B1
Second: B2
The Expression of the first is lower: 1.66E+07 for the first, 1.24E+08 for the second.

Compared with B3, B4 is lower in Expression: 6.04E+07 for the first, 2.18E+07 for the second.

First: B5
Second: B6
The Expression of the first is higher: 1.30E+08 for the first, 9.52E+04 for the second.

First: B7
Second: B8
The Expression of the first is higher: 5.93E+07 for the first, 2.03E+07 for the second.

For B9, the Expression was 1.87E+07.
